Assay [1] concerns the target HIV HR1 peptide (heptad repeat 1) (HIV). Kind of assay: SPR (BIAcore), HIV HR1 peptide immobilized on CM5 chip.
Assay [2] addresses alpha1-antitrypsin, P01009. Kind of assay: in vitro association of the serpin-finger polypeptide with alpha1-antitrypsin.

Where no end group is shown, it is not given here.

alpha1-antitrypsin, P01009, sequence (P01009 25-418 limits assumed): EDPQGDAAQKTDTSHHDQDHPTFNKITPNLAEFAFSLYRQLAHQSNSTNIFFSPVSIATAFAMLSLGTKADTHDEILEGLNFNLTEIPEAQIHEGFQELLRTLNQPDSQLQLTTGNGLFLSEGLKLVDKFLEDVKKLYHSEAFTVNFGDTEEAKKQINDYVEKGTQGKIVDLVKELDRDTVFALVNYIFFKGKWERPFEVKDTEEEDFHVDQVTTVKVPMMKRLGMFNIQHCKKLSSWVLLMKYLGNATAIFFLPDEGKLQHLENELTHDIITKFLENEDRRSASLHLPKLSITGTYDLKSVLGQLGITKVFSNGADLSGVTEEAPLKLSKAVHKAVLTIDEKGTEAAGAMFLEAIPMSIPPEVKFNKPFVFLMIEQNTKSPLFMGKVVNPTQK

B1: fusion polypeptide FP-1 (protein)
chain: GRTEAAGAMFLEAIPMSGGGGSGGGGSGGGGTWQEWEQKITALLEQAQIQQEKNEYELQKLDKWASLWEWF
On to B1, for which, in assay [1], the Ka came to 6.29e+08 M⁻¹, the Kd came to 1.59 nM, the koff was determined as 0.000361 s⁻¹ and the kon amounted to 227000 M⁻¹ s⁻¹.

Ac-TAVVIA [Ac-TAVVIA] displayed an in vitro association T1/2 in assay [2] of 16 h.

As to Ac-SDAAGAMFLEAI, the in vitro association T1/2 in assay [2] came to 16 h. The same measure, in the same setting: in the case of Ac-TEAAGAMFLEAIVM it was 10 h; in that of Ac-TEAAGAMFFEAIPM, 10 h.

B2: fusion polypeptide FP-2 (protein)
chain: GRGTEAAGAMFLEAIPMSTTWMEWDKEINNYTSLIHSLIEESQNQQEKNEQELL
On to B2, for which, in assay [1], the Ka came out at 1.08e+10 M⁻¹, the Kd was 0.0924 nM, the koff stood at 0.000119 s⁻¹ and the kon was determined as 1.29e+06 M⁻¹ s⁻¹. In turn, Ac-SEAAASMFLEAI returned an in vitro association T1/2 in assay [2] of 4 h.

B3: fusion polypeptide FP-3 (protein)
chain: GKSGTEAAGAMFLEAIPMSGGGGSGGGGSGGGGTTWEAWDRAIAEYAARIEALIRAAQEQQERNEAALREL
Take B3: in assay [1], the Ka is 3.22e+10 M⁻¹, the dissociation constant (Kd) turned out to be 0.031 nM, the koff came to 3.07e-05 s⁻¹ and the kon came to 991000 M⁻¹ s⁻¹.

Take Ac-TEAAGATAVVIA: in assay [2], the in vitro association T1/2 stood at 9.5 h. The same measure, in the same setting: the result for Ac-SEAAASTAVVIA reads 1.4 h. Still for that read-out and setting: in the case of Ac-TDAAGATAVVIA it was 16 h.

Values taken from patent publication US20140045742A1.
